# Assay results as given in patent US9845340B2, “Peptides that specifically bind HGF receptor (cMet) and uses thereof” (Dyax Corp., priority 2003, dated 2017).
# Columns and labels:
# [1] = target: T1, 3T3 cells that over-express human cMet (Homo sapiens, UniProt P08581); experiment: Whole cell ELISA of peptide-displaying phage; format: cell-based; details: phage isolate; 3T3 cells expressing human cMet vs. non-expressing 3T3 cells
# T1 construct: expressed in transfected cells; host or cells: 3T3 cells
# Summary of the method: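 3T3 cells over-expressing human cMet seeded 10^5/well, pelleted and fixed with 0.1% glutaraldehyde 12 min at 37 °C. Blocked peptide-displaying phage bound 1 h at room temperature; after PBST wash, bound phage detected with HRP-conjugated anti-M13 antibody.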
# cMet-Fc fusion protein = cMet-Fc fusion protein (Homo sapiens, UniProt P08581); experiment: Protein phage ELISA: peptide-displaying phage binding to soluble cMet-Fc versus TRAIL-Fc; details: phage isolate; cMet-Fc vs. TRAIL-Fc
# Summary of the method: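 Plates coated with 0.5 μg/mL cMet-Fc or, as background, TRAIL-Fc, then blocked with 3% BSA in PBST. Peptide-displaying phage bound 2 h at room temperature. Detection with HRP-anti-M13 antibody.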
# T1 sequence (P08581 25-1390): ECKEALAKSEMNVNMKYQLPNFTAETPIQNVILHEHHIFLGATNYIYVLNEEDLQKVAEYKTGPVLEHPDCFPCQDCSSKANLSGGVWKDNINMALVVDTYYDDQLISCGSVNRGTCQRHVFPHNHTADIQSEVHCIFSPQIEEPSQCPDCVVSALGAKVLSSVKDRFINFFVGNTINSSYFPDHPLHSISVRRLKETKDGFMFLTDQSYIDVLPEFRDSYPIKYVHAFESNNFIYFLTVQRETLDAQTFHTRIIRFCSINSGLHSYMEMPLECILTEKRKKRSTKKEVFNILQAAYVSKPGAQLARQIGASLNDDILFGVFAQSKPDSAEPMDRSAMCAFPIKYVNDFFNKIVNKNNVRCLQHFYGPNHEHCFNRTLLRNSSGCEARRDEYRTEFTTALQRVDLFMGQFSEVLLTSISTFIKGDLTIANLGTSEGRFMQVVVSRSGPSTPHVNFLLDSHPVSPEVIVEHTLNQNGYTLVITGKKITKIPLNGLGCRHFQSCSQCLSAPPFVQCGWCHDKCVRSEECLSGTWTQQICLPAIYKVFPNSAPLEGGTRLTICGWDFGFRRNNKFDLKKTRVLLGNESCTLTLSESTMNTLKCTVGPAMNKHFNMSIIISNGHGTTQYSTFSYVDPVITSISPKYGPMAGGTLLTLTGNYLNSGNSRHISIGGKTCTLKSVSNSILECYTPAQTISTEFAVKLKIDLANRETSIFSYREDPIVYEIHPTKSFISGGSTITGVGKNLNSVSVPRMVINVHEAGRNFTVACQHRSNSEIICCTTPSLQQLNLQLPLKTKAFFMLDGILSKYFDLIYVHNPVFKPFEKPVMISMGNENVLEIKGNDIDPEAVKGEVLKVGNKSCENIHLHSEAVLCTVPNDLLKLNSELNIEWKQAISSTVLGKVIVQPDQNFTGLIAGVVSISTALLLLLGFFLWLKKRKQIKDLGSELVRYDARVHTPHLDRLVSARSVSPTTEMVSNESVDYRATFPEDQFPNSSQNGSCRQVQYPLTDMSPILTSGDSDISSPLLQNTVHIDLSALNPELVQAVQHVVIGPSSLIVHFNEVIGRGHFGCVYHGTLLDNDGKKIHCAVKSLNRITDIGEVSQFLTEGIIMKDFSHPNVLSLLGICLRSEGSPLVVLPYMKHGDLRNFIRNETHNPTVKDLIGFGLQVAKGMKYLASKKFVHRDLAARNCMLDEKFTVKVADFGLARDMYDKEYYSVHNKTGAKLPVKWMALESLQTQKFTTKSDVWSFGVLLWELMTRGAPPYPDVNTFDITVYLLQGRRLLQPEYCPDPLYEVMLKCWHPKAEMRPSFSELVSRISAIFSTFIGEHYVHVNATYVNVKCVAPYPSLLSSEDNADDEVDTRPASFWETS
# Chain of cMet-Fc fusion protein (P08581 25-307 limits assumed): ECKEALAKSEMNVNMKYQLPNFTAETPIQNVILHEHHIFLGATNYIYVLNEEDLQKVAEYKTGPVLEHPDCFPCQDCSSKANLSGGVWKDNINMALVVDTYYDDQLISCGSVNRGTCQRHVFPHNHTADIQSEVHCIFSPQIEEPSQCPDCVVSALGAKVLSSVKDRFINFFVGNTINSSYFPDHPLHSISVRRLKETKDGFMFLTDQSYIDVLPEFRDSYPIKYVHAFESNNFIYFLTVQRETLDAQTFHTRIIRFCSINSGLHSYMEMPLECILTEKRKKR
# Chain of cMet-Fc fusion protein (P08581 with tags, fused parts or gaps limits assumed): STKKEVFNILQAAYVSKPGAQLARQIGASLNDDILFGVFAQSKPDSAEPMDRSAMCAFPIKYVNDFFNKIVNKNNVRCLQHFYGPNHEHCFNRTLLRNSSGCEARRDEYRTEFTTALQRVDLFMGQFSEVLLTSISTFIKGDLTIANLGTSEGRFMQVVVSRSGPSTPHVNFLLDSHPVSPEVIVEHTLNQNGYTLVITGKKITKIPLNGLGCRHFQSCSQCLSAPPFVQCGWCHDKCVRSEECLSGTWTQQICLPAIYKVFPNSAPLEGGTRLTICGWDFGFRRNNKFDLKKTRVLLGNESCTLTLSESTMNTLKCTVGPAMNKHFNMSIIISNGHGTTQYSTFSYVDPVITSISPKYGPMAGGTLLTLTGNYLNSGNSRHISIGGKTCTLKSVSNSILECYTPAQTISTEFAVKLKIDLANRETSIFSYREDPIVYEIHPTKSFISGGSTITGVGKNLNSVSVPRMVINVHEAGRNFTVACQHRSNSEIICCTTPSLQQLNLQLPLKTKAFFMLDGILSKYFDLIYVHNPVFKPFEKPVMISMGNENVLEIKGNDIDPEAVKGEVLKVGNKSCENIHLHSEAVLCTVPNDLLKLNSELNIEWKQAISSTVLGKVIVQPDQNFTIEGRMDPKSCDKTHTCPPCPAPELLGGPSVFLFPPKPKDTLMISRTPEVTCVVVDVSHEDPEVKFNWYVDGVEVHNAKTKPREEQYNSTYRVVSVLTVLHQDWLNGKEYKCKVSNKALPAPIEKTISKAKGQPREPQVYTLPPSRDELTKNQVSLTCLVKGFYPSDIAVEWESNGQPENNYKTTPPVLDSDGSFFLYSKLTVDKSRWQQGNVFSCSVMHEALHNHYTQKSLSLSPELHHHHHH
Molecule,WC ELISA [1] [fold over background],Protein ELISA (cMet-Fc fusion protein) [fold over background]
AGVWICRVWDDECFFQGT (Synthetically generated cMet-binding peptide sequence) [SEQ ID NO: 020],1.37,3.7
CC[C@H](C)[C@H](NC(=O)[C@@H]1CCCN1C(=O)[C@H](Cc1ccc(O)cc1)NC(=O)[C@H](CO)NC(=O)[C@H](CCSC)NC(=O)[C@H](C)NC(=O)[C@H](CC(C)C)NC(=O)[C@H](CCCCN)NC(=O)[C@H](Cc1ccc(O)cc1)NC(=O)[C@H](Cc1c[nH]cn1)NC(=O)[C@H](C)NC(=O)[C@H](CCC(=O)O)NC(=O)[C@@H]1CCCN1C(=O)[C@H](CCCNC(=N)N)NC(=O)[C@H](CCC(N)=O)NC(=O)[C@H](C)NC(C)=O)C(=O)N[C@H](C(=O)N1CCC[C@H]1C(=O)N[C@@H](CCCNC(=N)N)C(=O)N[C@H](C(=O)N[C@@H](CCCCN)C(=O)N[C@H](C(=O)NCC(=O)NCC(=O)NCC(=O)N[C@@H](CCCCNC(=O)c1ccc2c(c1)C(=O)OC21c2ccc(O)cc2Oc2cc(O)ccc21)C(N)=O)[C@@H](C)O)[C@@H](C)O)[C@@H](C)CC [SEQ ID NO: 452],1.37,35.3
GSMLGCLFEHQNKYDCYVLAP (Synthetically generated cMet-binding peptide sequence) [SEQ ID NO: 379],1.43,3.2
GSYYDCREFQCNKPAP (Synthetically generated cMet-binding peptide sequence) [SEQ ID NO: 002],1.33,4.4
GSFAPCGWPSFAIDCIAEAP (Synthetically generated cMet-binding peptide sequence) [SEQ ID NO: 367],1.30,7.7
GSLYRCLGEASPTPPCAYEAP (Synthetically generated cMet-binding peptide sequence) [SEQ ID NO: 380],1.37,4.0
GSEYSCRTSRCIFSAP (Synthetically generated cMet-binding peptide sequence) [SEQ ID NO: 006],1.33,3.2
AGNYFCAGSPSFSCYFMGT (Synthetically generated cMet-binding peptide sequence) [SEQ ID NO: 054],1.33,13.4
GSSQICAVYLDDTHNCERHAP (Synthetically generated cMet-binding peptide sequence) [SEQ ID NO: 373],1.30,4.0
GSFILCWWTFCDTNAP (Synthetically generated cMet-binding peptide sequence) [SEQ ID NO: 007],1.30,3.4
AQMYQTPDGVIGKFVDWMFN (Synthetically generated cMet-binding peptide sequence) [SEQ ID NO: 455],1.33,8.0
AGLLGCWDMPMECTGEGT (Synthetically generated cMet-binding peptide sequence) [SEQ ID NO: 036],1.27,3.6
GSRFHCWQGDLMQTYCMPMAP (Synthetically generated cMet-binding peptide sequence) [SEQ ID NO: 376],1.30,3.0
AGPWKCTGPPTFSCIQFGT (Synthetically generated cMet-binding peptide sequence) [SEQ ID NO: 090],1.23,19.5
AGMTLCAGPPTFECYEVGT (Synthetically generated cMet-binding peptide sequence) [SEQ ID NO: 092],1.23,12.3
AGMDFCEGFWFLCIGNAT (Synthetically generated cMet-binding peptide sequence) [SEQ ID NO: 035],1.23,3.5
CC[C@H](C)[C@H](NC(=O)[C@H](CO)NC(=O)CNC(=O)[C@H](C)NC(C)=O)C(=O)N[C@@H](CCC(N)=O)C(=O)N[C@H]1CSSC[C@@H](C(=O)N[C@@H](C)C(=O)N[C@@H](CCSC)C(=O)N[C@@H](Cc2ccc(O)cc2)C(=O)NCC(=O)N[C@H](C(=O)NCC(=O)NCC(=O)NCC(=O)N[C@@H](CCCCNC(=O)c2ccc3c(c2)C(=O)OC32c3ccc(O)cc3Oc3cc(O)ccc32)C(N)=O)[C@@H](C)O)NC(=O)[C@H](CO)NC(=O)[C@H](Cc2ccccc2)NC(=O)[C@H](Cc2c[nH]c3ccccc23)NC(=O)[C@@H]2CCCN2C(=O)[C@@H]2CCCN2C(=O)CNC(=O)[C@H](CCCCN)NC1=O [SEQ ID NO: 048],1.47,15.9
AGSSPCKGWPTFECYFYGT (Synthetically generated cMet-binding peptide sequence) [SEQ ID NO: 087],1.30,4.8
GDHRKCEISAKTHEVTCYDNDP (Synthetically generated cMet-binding peptide sequence) [SEQ ID NO: 402],1.17,5.2
AQHVVTLTLIQMPFAFNFEPRM (Synthetically generated cMet-binding peptide sequence) [SEQ ID NO: 484],1.30,3.1
AGIWFCNNEEKSCWAYGT (Synthetically generated cMet-binding peptide sequence) [SEQ ID NO: 040],1.37,3.0
GSSARCDELINDFHSCLVMAP (Synthetically generated cMet-binding peptide sequence) [SEQ ID NO: 375],1.33,4.3
AGQFKCAGPPSFACWMTGT (Synthetically generated cMet-binding peptide sequence) [SEQ ID NO: 050],1.43,14.8
AGDWICHGPPMFECEWVGT (Synthetically generated cMet-binding peptide sequence) [SEQ ID NO: 058],1.17,15.9
GSFNICPYQWCTLWAP (Synthetically generated cMet-binding peptide sequence) [SEQ ID NO: 010],1.37,3.0
